Data on one substance can be found in patent publication US20150174221A1.

One test addresses ADAMTS-4 (human) (UniProt O75173). As to the kind of experiment: cell-based or functional assay.
The next test addresses ADAMTS-5 (human) (UniProt Q9UNA0). Description: cell-based or functional assay.
Sequence of UniProt Q9UNA0 (Q9UNA0 262-622 limits assumed): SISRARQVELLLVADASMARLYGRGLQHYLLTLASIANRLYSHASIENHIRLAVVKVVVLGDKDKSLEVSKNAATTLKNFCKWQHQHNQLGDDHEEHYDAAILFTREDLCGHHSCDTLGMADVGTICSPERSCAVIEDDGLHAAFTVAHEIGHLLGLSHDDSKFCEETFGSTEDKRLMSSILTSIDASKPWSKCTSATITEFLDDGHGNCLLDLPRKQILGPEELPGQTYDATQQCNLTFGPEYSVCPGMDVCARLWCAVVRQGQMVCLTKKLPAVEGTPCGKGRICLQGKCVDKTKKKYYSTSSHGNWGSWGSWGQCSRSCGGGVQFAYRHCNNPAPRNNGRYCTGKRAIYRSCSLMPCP

Sequence of UniProt O75173 (O75173 213-685 limits assumed): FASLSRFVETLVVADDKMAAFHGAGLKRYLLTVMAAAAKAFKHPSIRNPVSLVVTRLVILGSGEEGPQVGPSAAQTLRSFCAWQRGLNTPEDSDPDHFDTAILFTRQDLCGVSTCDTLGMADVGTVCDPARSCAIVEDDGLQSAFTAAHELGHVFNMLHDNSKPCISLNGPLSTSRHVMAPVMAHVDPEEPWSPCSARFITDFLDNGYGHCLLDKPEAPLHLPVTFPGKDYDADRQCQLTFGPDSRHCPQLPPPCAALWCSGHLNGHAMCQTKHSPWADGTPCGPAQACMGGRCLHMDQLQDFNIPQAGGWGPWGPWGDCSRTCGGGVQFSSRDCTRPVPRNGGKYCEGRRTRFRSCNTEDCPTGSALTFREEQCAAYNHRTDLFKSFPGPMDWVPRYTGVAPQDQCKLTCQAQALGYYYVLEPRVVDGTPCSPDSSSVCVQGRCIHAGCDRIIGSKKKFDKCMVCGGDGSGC

Consider “purified human A2M (alpha-2-macroglobulin) (from UniProt P01023 24-1474)”, for which the IC50 needed to inhibit cartilage catabolism by the protease in the test with ADAMTS-4 (human) came to 3 µg/mL. Besides, in the test with ADAMTS-5 (human), the IC50 for inhibiting cartilage catabolism of bovine cartilage explants by 500 ng/ml ADAMTS-5 turned out to be 7 µg/mL, the IC50 needed to inhibit cartilage catabolism by the protease was found to be 7 µg/mL and the Maximum inhibition of ADAMTS-5-induced cartilage catabolism was 90%.
